{"source": "paper PMC4398458", "about": "“Reversible Linkage of Two Distinct Small Molecule Inhibitors of Myc Generates a Dimeric Inhibitor with Improved Potency That Is Active in Myc Over-Expressing Cancer Cell Lines” (PLoS ONE, 2015)", "binders": {"B1": {"name": "E-box oligonucleotide (dsDNA)", "DNA 1": "GATCAGTTGACCACGTGGTCTGGG", "DNA 2": "CCCAGACCACGTGGTCAACTGATC"}}, "molecular_target": "c-Myc bHLH-LZ;Max (human;human, UniProt P01106-1;P61244 352-439;1-160, |)", "sequence (P01106 367-454, chain 1 of 2)": "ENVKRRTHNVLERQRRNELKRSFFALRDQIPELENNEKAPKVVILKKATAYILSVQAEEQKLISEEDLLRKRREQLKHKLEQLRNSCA", "sequence (P61244 whole entry, chain 2 of 2)": "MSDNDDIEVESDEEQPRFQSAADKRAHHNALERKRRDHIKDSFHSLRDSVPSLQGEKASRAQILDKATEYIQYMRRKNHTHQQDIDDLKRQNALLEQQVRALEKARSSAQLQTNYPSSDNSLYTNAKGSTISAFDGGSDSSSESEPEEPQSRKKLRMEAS", "test": "EMSA; Myc:Max heterodimer, no inhibitor; EMSA: 100 mM KCl, 1 mM DTT, 1 mM EDTA, 50 mM Tris pH 7.4, 5 mM MgCl2, 0.002% NP40, 2% DMSO, room temperature; 200 ng Myc, 350 ng Max, 100 nM DNA, 10 ul; gel run in TBE at 4 C", "conditions": "protein: recombinant;commercial; tags: N-terminal 6xHis with TEV cleavage site; C-terminal GGCD extension;His and GST; copies: 1;1; label: none (SYBR Green stain); (only one strand given)", "data": [{"binder": "B1", "values": [{"measurement": "binding result", "result": "binds"}]}]}
